Data published in publication PMC7591920 (Nature Communications, 2020).
Bridge positions count the residues as written; N and C are the ends. Square brackets hold non-standard residues; d marks the D form. Primed or numbered codes have the meaning given here. Ends that are not written are not given here. * marks the point of attachment. FITC = O=C1OC2(c3ccc(O)cc3Oc3cc(O)ccc32)c2ccc(NC(=S)*)cc21; PEG2′ = not defined here; Peg = not defined here; AEEA = NCCOCCOCC(=O)O

B1: peptide 25 (alanine scan of 4E), acetylated (peptide)
peptide: Ac-SVEDHFAKALGDTWLAIKAA
modifications: lactam 3-18
notes: macrocyclic VGL4 two-helix motif 4E with one alanine; numbers count on: mouse VGL4 as in PDB 4LN0; Synthesised on Rink amide resin: C-terminal amide surmised; source: synthetic peptide
B2: peptide 17 (alanine scan of 4E), acetylated (peptide)
peptide: Ac-SVEDAFAKALGDTWLQIKAA
modifications: lactam 3-18
notes: as for B1
B3: peptide 16 (alanine scan of 4E), acetylated (peptide)
peptide: Ac-SVEAHFAKALGDTWLQIKAA
modifications: lactam 3-18
notes: as for B1
B4: peptide 26 (alanine scan of 4E), acetylated (peptide)
peptide: Ac-SVEDHFAKALGDTWLQAKAA
modifications: lactam 3-18
notes: as for B1
B5: peptide 14 (alanine scan of 4E), acetylated (peptide)
peptide: Ac-AVEDHFAKALGDTWLQIKAA
modifications: lactam 3-18
notes: as for B1
B6: FITC-labelled VGL4(203-256) (peptide)
peptide: DPVVEEHFRRSLGKNYKEPEPAPNSVSITGSVDDHFAKALGDTWLQIKAAKDSA
modifications: also: FITC label, place not given here
notes: numbers count on: mouse VGL4 as in PDB 4LN0; also called FITC-VGL4
B7: VGL4(203–256), full-length VGL4-derived TEAD binding sequence (peptide 1) (peptide, UniProt Q80V24 203-256, looked up)
peptide: DPVVEEHFRRSLGKNYKEPEPAPNSVSITGSVDDHFAKALGDTWLQIKAAKDSA
notes: mouse and human VGL4 are said to be identical in this stretch; Made on Rink amide resin, so probably a C-terminal amide; source: synthetic peptide (Fmoc solid-phase synthesis, RP-HPLC purified)
B8: VGL4(203-256), acetylated (peptide 1) (peptide)
peptide: Ac-DPVVEEHFRRSLGKNYKEPEPAPNSVSITGSVDDHFAKALGDTWLQIKAAKDSA
notes: numbers count on: mouse VGL4 as in PDB 4LN0; Synthesised on Rink amide resin: C-terminal amide surmised (masses fit); also called hVGL4(203-256); source: synthetic peptide
B9: FITC-labelled peptide 4E (peptide)
peptide: {FITC-Peg}-SVEDHFAKALGDTWLQIKAA
modifications: lactam 3-18; reading uncertain
notes: macrocyclic VGL4 two-helix motif 4E; numbers count on: mouse VGL4 as in PDB 4LN0; Rink amide resin: C-terminal amide surmised; also called 4E (FITC-Peg); source: synthetic peptide
B10: FITC-labelled peptide 7 (Tat-PEG2-4E) (peptide)
peptide: GRKKRRQRRRPQ[PEG2′]SVEDHFAKALGDTWLQIKAA
modifications: not fully specified (some residues); also: FITC label, place not given here
notes: also called 7 (FITC-Peg); source: synthetic peptide
B11: peptide 7, acetylated (Tat-PEG2-4E) (peptide)
peptide: Ac-GRKKRRQRRRPQ[AEEA]SVEDHFAKALGDTWLQIKAA-NH2
modifications: lactam 16-31; not fully specified (some residues)
notes: cell-penetrating Tat peptide; macrocyclic VGL4 two-helix motif 4E; numbers count on: mouse VGL4 as in PDB 4LN0; The two parts are joined by a PEG2 unit that is no amino acid; Rink amide resin: C-terminal amide surmised; source: synthetic peptide

Tests used:
Conditions in all cases: both partners purified
GST-hTEAD1(209-426) [1] = target: T1, GST-hTEAD1(209-426) (human, UniProt P28347 209-426); assay: SPR; GST-hTEAD1 or mTEAD4 amine-coupled to a CM5 chip (10 mM MES pH 6.4), peptides as analytes; 10 mM HEPES, 150 mM NaCl, 0.05% Tween-20, pH 7.4, 20 °C, 30 µL/min; steady-state fit, 1:1 model
T1 construct: A 3C protease site stands between tags and protein; also called human TEAD1; source: E. coli BL21 DE3 RIL, purified (His Trap, SEC); not shown: GST, N-terminal, kept

mouse TEAD4(210-427) [2] = target: T2, mouse TEAD4(210-427) (mouse, UniProt Q62296 210-427); assay: as above
T2 construct: mouse TEAD4, residues 210-427; The tag was cleaved with 3C protease only for the crystallisation; nothing is said for SPR and FP; also called mTEAD4; source: E. coli BL21 DE3 RIL, purified (His Trap, SEC)

mouse TEAD4(210-427) [3] = target: T2, mouse TEAD4(210-427); assay: fluorescence polarisation; competition: acetylated peptide titrated (50 µM-6 pM) against mTEAD4 (400 nM) with a FITC-labelled tracer peptide (10 nM; tracer not named); read after 1 h
GST-hTEAD1(209-426) [4] = target: T1, GST-hTEAD1(209-426); assay: fluorescence polarisation; direct: FITC-labelled peptide (10 nM) titrated with hTEAD1 or mTEAD4; 10 mM HEPES, 150 mM NaCl, 0.1% Tween-20, pH 7.4; read after 1 h
mouse TEAD4(210-427) [5] = target: T2, mouse TEAD4(210-427); assay: as above
[6] = target: T3, mouse TEAD4(210–427), as purified (SPR) (mouse, UniProt Q62296 210-427); assay: SPR; GST-hTEAD1 and mTEAD4 covalently tethered (NHS/EDC) on CM5 chips, 2000–3000 RU; peptides as analytes, threefold dilutions, typically 30 µM top concentration; 10 mM HEPES, 150 mM NaCl, 0.05% Tween-20, pH 7.4, 0.3% DMSO, 20 °C; steady-state fit, 1:1 model
T3 construct: cDNA fused with a 6x His-tag and a 3C protease cleavage site in pOPIN S; No tag cleavage is told for the protein used in SPR; cleavage is told only for the crystallised complex; also called mTEAD4; source: E. coli BL21 DE3 RIL, purified (His Trap, SEC)

GST-hTEAD1(209-426) [7] = target: T1, GST-hTEAD1(209-426); assay: SPR; GST-hTEAD1 or mTEAD4 amine-coupled to a CM5 chip (10 mM MES pH 6.4), peptides as analytes; 10 mM HEPES, 150 mM NaCl, 0.05% Tween-20, pH 7.4, 20 °C, 30 µL/min; steady-state fit, 1:1 model; remark: listed apart in the source
mouse TEAD4(210-427) [8] = target: T2, mouse TEAD4(210-427); assay: as above; remark: listed apart in the source
GST-hTEAD1(209-426) [9] = target: T1, GST-hTEAD1(209-426); assay: fluorescence polarisation; direct: FITC-labelled peptide (10 nM) titrated with hTEAD1 or mTEAD4; 10 mM HEPES, 150 mM NaCl, 0.1% Tween-20, pH 7.4; read after 1 h; remark: listed apart in the source
mouse TEAD4(210-427) [10] = target: T2, mouse TEAD4(210-427); assay: as above; remark: listed apart in the source
GST-hTEAD1(209-426) [11] = target: T1, GST-hTEAD1(209-426); assay: SPR; GST-hTEAD1 or mTEAD4 amine-coupled to a CM5 chip (10 mM MES pH 6.4), peptides as analytes; 10 mM HEPES, 150 mM NaCl, 0.05% Tween-20, pH 7.4, 20 °C, 30 µL/min; steady-state fit, 1:1 model; remark: listed apart in the source
mouse TEAD4(210-427) [12] = target: T2, mouse TEAD4(210-427); assay: as above; remark: listed apart in the source

T1 sequence (P28347 209-426): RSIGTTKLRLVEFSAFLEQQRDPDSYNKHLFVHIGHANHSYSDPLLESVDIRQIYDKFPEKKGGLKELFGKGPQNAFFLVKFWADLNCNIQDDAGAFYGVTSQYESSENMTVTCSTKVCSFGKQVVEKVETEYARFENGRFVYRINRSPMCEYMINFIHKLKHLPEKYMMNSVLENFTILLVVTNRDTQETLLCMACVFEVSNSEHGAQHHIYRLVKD
T2 sequence (Q62296 210-427): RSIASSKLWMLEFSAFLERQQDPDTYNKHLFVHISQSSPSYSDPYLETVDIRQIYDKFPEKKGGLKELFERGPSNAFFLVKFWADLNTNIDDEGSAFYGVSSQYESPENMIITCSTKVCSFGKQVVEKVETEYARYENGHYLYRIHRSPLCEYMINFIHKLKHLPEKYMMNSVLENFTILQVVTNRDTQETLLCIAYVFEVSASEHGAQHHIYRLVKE
T3 sequence (Q62296 210-427): as above

Row | Binder | Kd (GST-hTEAD1(209-426) [1]) | Kd (mouse TEAD4(210-427) [2]) | IC50 (mouse TEAD4(210-427) [3]) | other results
1 | B1 | 750 ± 120 nM | 1300 ± 110 nM | 60 ± 10 nM | 
2 | B2 | > 100000 nM | > 100000 nM | > 100000 nM | 
3 | B3 | 740 ± 460 nM | 1600 ± 690 nM | 3000 ± 760 nM | 
4 | B4 | 2700 ± 1070 nM | 4400 ± 1350 nM | 7400 ± 6100 nM | 
5 | B5 | 1500 ± 20 nM | 2700 ± 250 nM | 6100 ± 4300 nM | 
6 | B6 |  |  |  | Kd (GST-hTEAD1(209-426) [4]): 17 ± 2.5 nM; Kd (mouse TEAD4(210-427) [5]): 9.2 ± 0.6 nM
7 | B7 |  |  |  | Kd [6]: 2000 nM
8 | B8 |  |  |  | Kd (GST-hTEAD1(209-426) [7]): 4300 nM; Kd (mouse TEAD4(210-427) [8]): 3100 nM
9 | B9 |  |  |  | Kd (GST-hTEAD1(209-426) [9]): 168 ± 37 nM; Kd (mouse TEAD4(210-427) [10]): 32 ± 5 nM
10 | B10 |  |  |  | Kd (GST-hTEAD1(209-426) [9]): 147 ± 70 nM; Kd (mouse TEAD4(210-427) [10]): 51 ± 5 nM
11 | B11 |  |  |  | Kd (GST-hTEAD1(209-426) [11]): 830 ± 780 nM; Kd (mouse TEAD4(210-427) [12]): 1500 ± 1000 nM
